# Measurements as given in paper PMC9411544, “Catalytic innovation underlies independent recruitment of polyketide synthases in cocaine and hyoscyamine biosynthesis” (Nature Communications, 2022).
# Test system: CC(C)(COP(=O)(O)OP(=O)(O)OC[C@H]1O[C@@H](n2cnc3c(N)ncnc32)[C@H](O)[C@@H]1OP(=O)(O)O)[C@@H](O)C(=O)NCCC(=O)NCCSC(=O)CC(=O)O
# Assay: purified protein
# Conditions: sole substrate, 100 mM potassium phosphate, pH 8.0, 30 °C, 20-1000 μM malonyl-CoA
Substance,"Km (1 ng/μL enzyme, 5 min) [µM]","kcat (1 ng/μL enzyme, 5 min) [s⁻¹]","Km (2 ng/μL enzyme, 8 min) [µM]","kcat (2 ng/μL enzyme, 8 min) [s⁻¹]"
AaPYKS1 (Anisodus acutangulus),70.38,2.24,–,–
EnPKS1 (Erythroxylum novogranatense),112.90,1.89,–,–
EnPKS2 (Erythroxylum novogranatense),–,–,50.54,0.45
